Article PMC6891851 (ACS Central Science, 2019)
Square brackets hold non-standard residues; d marks the D form.

Target: the molecule itself
Test: hydrogelation with CD, TEM and rheology

B1: AcVES3 peptide hydrogel (peptide)
peptide: Ac-VEVSVSVEV[dP]PTEVSVEVEV-NH2
SMILES: CC(=O)N[C@H](C(=O)N[C@@H](CCC(=O)O)C(=O)N[C@H](C(=O)N[C@@H](CO)C(=O)N[C@H](C(=O)N[C@@H](CO)C(=O)N[C@H](C(=O)N[C@@H](CCC(=O)O)C(=O)N[C@H](C(=O)N1CCC[C@@H]1C(=O)N1CCC[C@H]1C(=O)N[C@H](C(=O)N[C@@H](CCC(=O)O)C(=O)N[C@H](C(=O)N[C@@H](CO)C(=O)N[C@H](C(=O)N[C@@H](CCC(=O)O)C(=O)N[C@H](C(=O)N[C@@H](CCC(=O)O)C(=O)N[C@H](C(N)=O)C(C)C)C(C)C)C(C)C)C(C)C)[C@@H](C)O)C(C)C)C(C)C)C(C)C)C(C)C)C(C)C
  binding result: binds
